Tested on: S. aureus MRSA-M2
Assay: murine tibial implant model of S. aureus infection
Format: in vivo
Settings: C57BL/6 mice, tibiae CFU at 21 days post-challenge; 12.5 μg per antigen IP at 28 and 14 days prior to challenge
Text: Mice. Inbred C57BL/6 (6-8 weeks old) were purchased from Jackson Laboratories (Bar Harbor, Me.). Mice were maintained under micro-isolator conditions in the animal facility at the University of Maryland Dental School (Baltimore, Md.), in accordance with protocols reviewed and approved by the Institutional Animal Care and Use Committee (IACUC).
Bacterial strain and preparation of infectious inocula. […] Cells were centrifuged, rinsed with PBS, counted via a Petroff Hausser counter, and diluted to 1×10^6 CFU/ml. […]
Bone Cultures. […] In addition, non-vaccinated mice (alum alone) and mice vaccinated with the quadrivalent vaccine, the single additional antigen SA0119, or all antigens combined were euthanized at 21 days post infection and tibial colony-forming units (CFUs) were determined as described above. Dissemination of the S. aureus infection was monitored by homogenizing kidneys and plating the homogenates as described above.
Statistical Analysis. Mean and SD were calculated and analyzed using Student's t-test with a P value of <0.05 to determine statistical significance. Experiments determining the percentage of mice still infected after vancomycin or PBS treatment were analyzed using Fishers Exact test with a p value of <0.05 for statistical significance. […]

B1: SACOL0119 vaccine: planktonic-specific monovalent vaccine; S. aureus polypeptide SA0119, SEQ ID NO:14 (protein, listed as Staphylococcus aureus)
chain: MKKLATVGSLIVTSTLVFSSMPFQNAHADTTSMNVPNKQSQNVQNHRPYGGVVPQGMTQAQYTELEKTLPQLSAGSNMQDYNMKLYDATQNIADKYNVIITTNVGVFKPHAVRDMNGHALPLTKDGNFYQTNVDANGVNHGGSEMVQNKTGHMSQQDHMNQNTHMNQQPQIQQGHMQSSNHQMMSPKANMHSSNHQMNQSNKKVLPAAGESMTSSILTASIAALLLVSGLFLAFRRRSTNK
bacterial clearance (percent of animals cleared of S. aureus): 40%
